Tests used:
TNF = TNF (human, UniProt P01375); test: SPR
[1] = target: SARS-CoV-2 prototype (PT) RBD (SARS-CoV-2, UniProt P0DTC2); test: SPR

Sequence of TNF (P01375 77-233): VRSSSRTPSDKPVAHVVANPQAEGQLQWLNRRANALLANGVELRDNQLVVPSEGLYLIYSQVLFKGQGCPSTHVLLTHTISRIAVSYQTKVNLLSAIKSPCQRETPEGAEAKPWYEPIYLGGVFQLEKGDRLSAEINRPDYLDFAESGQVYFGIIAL

| Binder | Kd (TNF) | Kd [1] |
| --- | --- | --- |
| TNFR2-Fc (Fc fusion) LPAQVAFTPYAPEPGSTCRLREYYDQTAQMCCSKCSPGQHAKVFCTKTSDTVCDSCEDSTYTQLWNWVPECLSCGSRCSSDQVETQACTREQNRICTCRPGWYCALSKQEGCRLCAPLRKCRPGFGVARPGTETSDVVCKPCAPGTFSNTTSSTDICRPHQICNVVAIPGNASMDAVCTSTSPTRSMAPGAVHLPQPVSTRSQHTQPTPEPSTAPSTSFLLPMGPSPPAEGSTGDFALPVGLIVGVTALGLLIIGVVNCVIMTQVKKKPLCLQREAKVPHLPADKARGTQGPEQQHLLITAPSSSSSSLESSASALDRRAPTRNQPQAPGVEASGAGEARASTGSSDSSPGGHGTQVNVTCIVNVCSSSDHSSQCSSQASSTMGDTDSSPSESPKDEQVPFSKEECAFRSQLETPETLLGSTEEKPLPLGVPDAGMKPS | 0.0418 nM | – |
| ACE2 (M)-Fc (Fc fusion) QSTIEEQAKFFLDYFNHEAEDLFYQSSLASWNYNTNITEENVQNMNNAGDKWSAFLKEQSTWAQMYPLQEIQNLTVKLQLQALQQNGSSVLSEDKSKRLNTILNTMSTIYSTGKVCNPDNPQECLLLEPGLNEIMANSLDYNERLWAWESWRSEVGKQLRPLYEEYVVLKNEMARANHYEDYGDYWRGDYEVNGVDGYDYSRGQLIEDVEHTFEEIKPLYEHLHAYVRAKLMNAYPSYISPIGCLPAHLLGDMWGQFWTNLYSLTVPFGQKPNIDVTDAMVDQAWDAQRIFKEAEKFFVSVGLPNMTQGFWEYSMLTDPGNVQKAVCHPTAWDLGKGDFRILMCTKVTMDDFLTAHHEMGHIQYDMAYAAQPFLLRNGANEGFHEAVGEIMSLSAATPKHLKSIGLLSPDFQEDNETEINFLLKQALTIVGTLPFTYMLEKWRWMVFKGEIPKDQWMKKWWEMKREIVGVVEPVPHDETYCDPASLFHVSNDYSFIRYYTRTLYQFQFQEALCQAAKHEGPLHKCDISNSTEAGQKLFNMLRLGKSEPWTLALENVVGAKNMNVRPLLNYFEPLFTWLKDQNKNSFVGWSTDWSPYADQSIKVRISLKSALGDKAYEWNDNEMYLFRSSVAYAMRQYFLKVKNQMILFGEEDVRVANLKPRISFNFFVTAPKNVSDIIPRTEVEKAIRMSRSRINDAFRLNDNSLEFLGIQPTLGPPNQPPVS | – | 0.274 nM |
| ACE2 (M)-Fc-TNFR2 (Fc fusion) QSTIEEQAKFFLDYFNHEAEDLFYQSSLASWNYNTNITEENVQNMNNAGDKWSAFLKEQSTWAQMYPLQEIQNLTVKLQLQALQQNGSSVLSEDKSKRLNTILNTMSTIYSTGKVCNPDNPQECLLLEPGLNEIMANSLDYNERLWAWESWRSEVGKQLRPLYEEYVVLKNEMARANHYEDYGDYWRGDYEVNGVDGYDYSRGQLIEDVEHTFEEIKPLYEHLHAYVRAKLMNAYPSYISPIGCLPAHLLGDMWGQFWTNLYSLTVPFGQKPNIDVTDAMVDQAWDAQRIFKEAEKFFVSVGLPNMTQGFWEYSMLTDPGNVQKAVCHPTAWDLGKGDFRILMCTKVTMDDFLTAHHEMGHIQYDMAYAAQPFLLRNGANEGFHEAVGEIMSLSAATPKHLKSIGLLSPDFQEDNETEINFLLKQALTIVGTLPFTYMLEKWRWMVFKGEIPKDQWMKKWWEMKREIVGVVEPVPHDETYCDPASLFHVSNDYSFIRYYTRTLYQFQFQEALCQAAKHEGPLHKCDISNSTEAGQKLFNMLRLGKSEPWTLALENVVGAKNMNVRPLLNYFEPLFTWLKDQNKNSFVGWSTDWSPYADQSIKVRISLKSALGDKAYEWNDNEMYLFRSSVAYAMRQYFLKVKNQMILFGEEDVRVANLKPRISFNFFVTAPKNVSDIIPRTEVEKAIRMSRSRINDAFRLNDNSLEFLGIQPTLGPPNQPPVSGGGGSGGGGSGGGGSLPAQVAFTPYAPEPGSTCRLREYYDQTAQMCCSKCSPGQHAKVFCTKTSDTVCDSCEDSTYTQLWNWVPECLSCGSRCSSDQVETQACTREQNRICTCRPGWYCALSKQEGCRLCAPLRKCRPGFGVARPGTETSDVVCKPCAPGTFSNTTSSTDICRPHQICNVVAIPGNASMDAVCTSTSPTRSMAPGAVHLPQPVSTRSQHTQPTPEPSTAPSTSFLLPMGPSPPAEGSTGD | – | 0.258 nM |
